Measurements as given in patent publication US20070003556A1 (published 2007).

T1: CD22 (UniProt P20273 20-847, limits assumed)
T1 construct: whole, on cells; The assays used B-lymphoma cell lines Raji and Daudi, 'which are known to strongly express CD22'; also called CD22 on Raji cells; CD22 on Daudi cells
T1 sequence (looked up): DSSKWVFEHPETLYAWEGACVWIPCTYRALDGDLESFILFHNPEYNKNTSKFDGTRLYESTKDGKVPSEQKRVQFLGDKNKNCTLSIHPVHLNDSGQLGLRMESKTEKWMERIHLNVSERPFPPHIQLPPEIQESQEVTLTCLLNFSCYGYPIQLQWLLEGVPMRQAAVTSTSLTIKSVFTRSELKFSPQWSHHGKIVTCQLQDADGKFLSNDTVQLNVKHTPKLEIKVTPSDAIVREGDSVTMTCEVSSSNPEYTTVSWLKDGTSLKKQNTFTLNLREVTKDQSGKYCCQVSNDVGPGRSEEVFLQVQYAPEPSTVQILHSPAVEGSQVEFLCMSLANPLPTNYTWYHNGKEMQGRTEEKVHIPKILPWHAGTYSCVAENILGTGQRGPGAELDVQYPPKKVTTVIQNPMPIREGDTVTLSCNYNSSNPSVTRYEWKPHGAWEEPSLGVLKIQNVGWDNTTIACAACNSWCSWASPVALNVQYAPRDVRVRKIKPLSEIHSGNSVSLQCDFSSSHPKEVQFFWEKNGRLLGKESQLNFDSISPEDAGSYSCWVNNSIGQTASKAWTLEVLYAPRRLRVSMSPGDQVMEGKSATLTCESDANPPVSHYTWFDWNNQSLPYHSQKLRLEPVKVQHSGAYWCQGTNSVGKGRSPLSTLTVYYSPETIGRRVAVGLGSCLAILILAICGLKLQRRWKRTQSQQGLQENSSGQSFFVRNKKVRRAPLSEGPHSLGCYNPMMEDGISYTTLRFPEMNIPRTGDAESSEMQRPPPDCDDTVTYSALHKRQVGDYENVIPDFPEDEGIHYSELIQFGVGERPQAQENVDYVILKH

B1: RFB4 diabody (other)
chain: EVQLVESGGGLVKPGGSLKLSCAASGFAFSIYDMSWVRQTPEKRLEWVAYISSGGGTTYYPDTVKGRFTISRDNAKNTLYLQMSSLKSEDTAMYYCARHSGYGSSYGVLFAYWGQGTLVTVSAGGGGSDIQMTQTTSSLSASLGDRVTISCRASQDISNYLNWYQQKPDGTVKLLIYYTSILHSGVPSKFSGSGSGTDYSLTISNLEQEDFATYFCQQGNTLPWTFGGGTKLEIKDYKDDDDK
notes: Diabody: a non-covalent dimer of two identical VH-(5-mer linker)-VL-Flag fragments; Transiently expressed in COS7 cells and purified on anti-Flag M2 agarose; also called CD22 diabody; RFB4 DB
B2: LL2 diabody (other)
chain: QVQLQESGAELSKPGASVKMSCKASGYTFTSYWLHWIKQRPGQGLEWIGYINPRNDYTEYNQNFKDKATLTADKSSSTAYMQLSSLTSEDSAVYYCARRDITTFYWGQGTTLTVSSGGGGSDIQLTQSPSSLAVSAGENVTMSCKSSQSVLYSANHKNYLAWYQQKPGQSPKLLIYWASTRESGVPDRFTGSGSGTDFTLTISRVQVEDLAIYYCHQYLSSWTFGGGTKLEIKDYKDDDDK
notes: Diabody: a non-covalent dimer of two identical VH-(5-mer linker)-VL-Flag fragments; Expressed in DG44 cells and purified on anti-Flag M2 agarose; also called CD22 diabody; LL2 DB

How the values were obtained:
[1] = target: T1, CD22; assay: flow cytometry on Raji cells, diabody at 8 ug/mL, detected with anti-Flag M2 antibody and FITC-anti-mouse IgG
Protocol: (§1) Purified LL2 diabody and RFB4 diabody were added to cells of the B-lymphoma cell line, Raji, in PBS containing 2% FCS and 0.02% NaN₃ such that the final concentrations were 20 μg/mL and 8 μg/mL, respectively. After reacting on ice for one hour, anti-Flag M2 antibody was added to the mixture, and then reacted on ice for another one hour. The cells were washed and reacted with FITC-anti-mouse IgG on ice for 30 minutes. Diabody binding to the cell surface was measured by flow cytometry (EPICS ELITE, COULTER).

[2] = target: T1, CD22; assay: flow cytometry on Raji cells, diabody at 20 ug/mL, detected with anti-Flag M2 antibody and FITC-anti-mouse IgG
Protocol: as §1

| Binder | binding result [1] | binding result [2] |
| --- | --- | --- |
| B1 | binds |  |
| B2 |  | binds |
